Assay results: article PMC3197488

Legend:
[1] = molecular target: P. aeruginosa single-stranded DNA-binding protein (P. aeruginosa) (UniProt P40947); assay: AUC; sedimentation velocity; χψ titrated to 6 μM SSB in high salt buffer, 50000 rpm, 20°C, 280 nm; free χψ from c(s); model of n independent χψ per SSB tetramer
[2] = molecular target: P. aeruginosa single-stranded DNA-binding protein (P. aeruginosa) (UniProt P40947); assay: AUC; sedimentation velocity; χψ titrated to 0.35 μM cognate SSB saturated with 12.3 μM poly(dT), low salt buffer, 22000 rpm, 20°C, 230 nm; model of n χψ per SSB tetramer
[3] = molecular target: EcoSSB;Eco chi-psi complex (Escherichia coli;Escherichia coli LK111lambda) (UniProt P0AGE0+P28905+P28632); assay: analytical ultracentrifugation (sedimentation velocity); conditions: Low salt: 5 mM NaCl, 5 mM KPi pH 7.4, 0.87 M glycerol, 0.5 mM DTT; high salt: 0.3 M NaCl, 20 mM KPi pH 7.4, 0.5 mM DTT; AUC at 20 C; EMSA incubated 10 min at …
EcoSSB;Eco chi-psi complex (Escherichia coli;Escherichia coli LK111lambda), sequence (P0AGE0 2-178, chain 1 of 3): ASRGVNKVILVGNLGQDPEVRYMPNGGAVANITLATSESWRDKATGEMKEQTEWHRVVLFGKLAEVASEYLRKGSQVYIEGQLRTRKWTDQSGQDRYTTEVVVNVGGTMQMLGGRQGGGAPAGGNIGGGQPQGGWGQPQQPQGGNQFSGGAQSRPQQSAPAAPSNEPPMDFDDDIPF
EcoSSB;Eco chi-psi complex (Escherichia coli;Escherichia coli LK111lambda), sequence (P28905 whole entry, chain 2 of 3): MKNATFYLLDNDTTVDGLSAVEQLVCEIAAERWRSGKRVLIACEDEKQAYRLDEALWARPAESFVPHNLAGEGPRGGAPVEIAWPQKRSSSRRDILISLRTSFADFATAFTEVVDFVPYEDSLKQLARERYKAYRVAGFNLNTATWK
EcoSSB;Eco chi-psi complex (Escherichia coli;Escherichia coli LK111lambda), sequence (P28632 whole entry, chain 3 of 3): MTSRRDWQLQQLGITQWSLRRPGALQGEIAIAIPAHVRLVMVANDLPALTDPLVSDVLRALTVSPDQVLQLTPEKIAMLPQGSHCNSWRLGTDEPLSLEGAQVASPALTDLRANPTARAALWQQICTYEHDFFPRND

[4] = molecular target: T1, Pae chi-psi complex (DNA polymerase III) (Pseudomonas aeruginosa PAO1) (UniProt O68823); assay: as above; conditions: Low salt: 5 mM NaCl, 5 mM KPi pH 7.4, 0.87 M glycerol, 0.5 mM DTT; high salt: 0.3 M NaCl, 20 mM KPi pH 7.4, 0.5 mM DTT; AUC at 20 C; EMSA incubated 10 min at …
T1 sequence: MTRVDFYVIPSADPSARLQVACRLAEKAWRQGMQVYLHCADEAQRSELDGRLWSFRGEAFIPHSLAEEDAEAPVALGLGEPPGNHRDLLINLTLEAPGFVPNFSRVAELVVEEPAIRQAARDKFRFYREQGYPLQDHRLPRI

[5] = molecular target: PaeSSB;Pae chi-psi complex (DNA polymerase III) (Pseudomonas aeruginosa;Pseudomonas aeruginosa PAO1) (UniProt P40947+O68823); assay: as above; conditions: Low salt: 5 mM NaCl, 5 mM KPi pH 7.4, 0.87 M glycerol, 0.5 mM DTT; high salt: 0.3 M NaCl, 20 mM KPi pH 7.4, 0.5 mM DTT; AUC at 20 C; EMSA incubated 10 min at …
PaeSSB;Pae chi-psi complex (DNA polymerase III) (Pseudomonas aeruginosa;Pseudomonas aeruginosa PAO1), sequence (P40947 2-165, one chain of several): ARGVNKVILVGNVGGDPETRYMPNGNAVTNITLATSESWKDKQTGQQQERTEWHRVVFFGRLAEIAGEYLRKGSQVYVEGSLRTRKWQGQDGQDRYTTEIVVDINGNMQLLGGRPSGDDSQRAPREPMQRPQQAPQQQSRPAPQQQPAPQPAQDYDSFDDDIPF

P. aeruginosa single-stranded DNA-binding protein (P. aeruginosa), sequence (P40947 whole entry): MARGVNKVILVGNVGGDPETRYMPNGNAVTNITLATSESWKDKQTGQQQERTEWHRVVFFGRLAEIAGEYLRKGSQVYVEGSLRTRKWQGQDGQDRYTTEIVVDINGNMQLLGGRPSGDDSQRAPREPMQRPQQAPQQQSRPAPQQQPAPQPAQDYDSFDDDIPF

Ka [1] [M⁻¹]	stoichiometry N (χψ per SSB tetramer) [1]	Ka [2] [M⁻¹]	stoichiometry N (χψ per SSB tetramer) [2]	Substance	Ka [3] [M⁻¹]	Ka [4] [M⁻¹]	Ka [5] [M⁻¹]
130000	2.2	> 5e+07	2.2	P. aeruginosa χψ complex (from UniProt O68823 1-142)			
				TTTTTTTTTTTTTTTTTTTTTTTTTTTTTTTTTTTTTTTTTTTTTTTTTTTTTTTTTTTTTTTTTTTTTTTTTTTTTTTTTTTTTTTTTTTTTTTTTTTTTTTTTTTTTTTTTTTTTTTTTTTTTTTTTTTTTTTTTTTTTTTTTTTTTTTTTTTTTTTTTTTTTTTTTTTTTTTTTTTTTTTTTTTTTTTTTTTTTTTTTTTTTTTTTTTTTTTTTTTTTTTTTTTTTTTTTTTTTTTTTTTTTTTTTTTTTTTTTTTTTTTTTTTTTTTTTTTTTTTTTTTTTTTTTTTTTTTTTTTT [poly(dT)]	6e+06	500000	> 5e+07
